Where a chain is given by its changes, count along the chain named.
T1: Human CD3eg linker (human)
T1 construct: Single chain: CD3 epsilon and gamma subunits joined by a 29-mer linker, Flag-tag at the C-terminus; also called recombinant human CD3
T1 chain: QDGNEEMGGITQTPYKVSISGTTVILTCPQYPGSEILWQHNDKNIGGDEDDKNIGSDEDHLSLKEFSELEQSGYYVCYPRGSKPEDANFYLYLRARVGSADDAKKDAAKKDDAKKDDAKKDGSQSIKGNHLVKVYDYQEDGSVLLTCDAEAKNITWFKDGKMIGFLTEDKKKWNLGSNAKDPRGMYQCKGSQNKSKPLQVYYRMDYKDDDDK

B1: H1652L0943 (antibody, V domains shown)
VH: QVQLVESGGGLVQPGRSLRLSCAASGFVFSNVWFHWVRQAPGKGLEWVAQIKDYYNAYADYYAPSVEGRFTISRDDSKNSIYLQMNSLKTEDTAVYYCHYVHYASASTLLPAEGVDAWGQGTTVTVSS
VL: DIVMTQSPLSLPVTPGEPASISCQPSEEVVHMNRNTYLHWYQQKPGQAPRLLIYKVSNLFPGVPDRFSGSGSGTDFTLKISRVEAEDVGVYYCAQGTHHPFTFGQGTKLEIK
notes: Dual-Ig, IgG; also called dBBDu183H1652/dBBDu072L0943
B2: H0868L0581 (antibody, V domains shown)
VH: B1 VH with V28K, F34M, Y54K, D60A, E67K, E113F
VL: B1 VL with E27Q, L59R, H98S
notes: Dual-Ig, IgG; also called H868L581; dBBDu183H0868/dBBDu072L0581
B3: H1647L0581 (antibody, V domains shown)
VH: B1 VH with V28K, V32T, A57D, D60A, E67K
VL: B1 VL with E27Q, L59R, H98S
notes: Dual-Ig, IgG; also called dBBDu183H1647/dBBDu072L0581
B4: H183/L072 (antibody, V domains shown)
VH: B1 VH with V28T, V32A, F34M, Y54K, Y55G, D60A, E67K, L109V, E113F
VL: B1 VL with P25A, E27Q, V29L, L59R, H98S, H99V
notes: Dual-Fab antibody (Dual-Ig), bivalent IgG; also called parental Dual-Fab H183L072; dBBDu183H/dBBDu072L
B5: GPC3 ERY22-dBBDu_167/L091 (bispecific antibody, human IgG1, kappa, L234A L235A, N297A)
heavy 1: DIVMTQSPLSLPVTPGEPASISCRSSQSLVHSNRNTYLHWYQQKPGQAPRLLIYKVSNRFSGVPDRFSGSGSGTDFTLKISRVEAEDVGVYYCSQNTHVPPTFGQGTKLEIKSSASTKGPSVFPLAPSSKSTSGGTAALGCLVKDYFPEPVTVSWNSGALTSGVHTFPAVLQSSGLYSLSSVVTVPSSSLGTQTYICNVNHKPSNTKVDKKVEPKSCDKTHTCPPCPAPEAAGGPSVFLFPPKPKDTLMISRTPEVTCVVVDVSHEDPEVKFNWYVDGVEVHNAKTKPREEQYASTYRVVSVLTVLHQDWLNGKEYKCKVSNKALPAPIEKTISKAKGQPREPQVCTLPPSRDELTKNQVSLWCLVKGFYPSDIAVEWESNGQPENNYKTTPPVLDSDGSFFLYSKLTVDKSRWQQGNVFSCSVMHEALHNHYTQKSLSLSPHHHHHHHH
light 1: QVQLVQSGAEVKKPGASVKVSCKASGYTFTDYEMHWIRQPPGQGLEWIGAIDPKTGDTAYSQKFKGRVTLTADKSTSTAYMELSSLTSEDTAVYYCTRFYSYTYWGQGTLVTVSSASVAAPSVFIFPPSDEQLKSGTASVVCLLNNFYPREAKVQWKVDNALQSGNSQESVTEQDSKDSTYSLSSTLTLSKADYEKHKVYACEVTHQGLSSPVTKSFNRGEC
heavy 2: QVQLVESGGGLVQPGRSLRLSCAASGFTFSNAWMHWVRQAPGKGLEWVAQIKDKGNLYAAYYAPSVKGRFTISRDDSKNSIYLQMNSLKTEDTAVYYCHYVHYASAGGGLPGFGVDAWGQGTTVTVSSASTKGPSVFPLAPSSKSTSGGTAALGCLVKDYFPEPVTVSWNSGALTSGVHTFPAVLQSSGLYSLSSVVTVPSSSLGTQTYICNVNHKPSNTKVDKKVEPKSCDKTHTCPPCPAPEAAGGPSVFLFPPKPKDTLMISRTPEVTCVVVDVSHEDPEVKFNWYVDGVEVHNAKTKPREEQYASTYRVVSVLTVLHQDWLNGKEYKCKVSNKALPAPIEKTISKAKGQPREPQVYTLPPSRCELTKNQVSLSCAVKGFYPSDIAVEWESNGQPENNYKTTPPVLDSDGSFFLVSKLTVDKSRWQQGNVFSCSVMHEALHNHYTQKSLSLSPDYKDDDDK
light 2: DIVMTQSPLSLPVTPGEPASISCSASESLLHNNRHTYLHWYQQKPGQAPRLLIYRVSNRFNGVPDRFSGSGSGTDFTLKISRVEAEDVGVYYCGQGTQVPFTFGQGTKLEIKRTVAAPSVFIFPPSDEQLKSGTASVVCLLNNFYPREAKVQWKVDNALQSGNSQESVTEQDSKDSTYSLSSTLTLSKADYEKHKVYACEVTHQGLSSPVTKSFNRGEC
B6: GPC3 ERY22-dBBDu_186/L098 (bispecific antibody, human IgG1, kappa, L234A L235A, N297A)
heavy 1: B5 heavy 1
light 1: B5 light 1
heavy 2: B5 heavy 2 with K54R, G55S, L57Q, A60T, S105Q, G107S, G108T, G109V, G112A
light 2: DIVMTQSPLSLPVTPGEPASISCAASEELVHINRYIFLHWYQQKPGQAPRLLIYKVSNRFIGVPDRFSGSGSGTDFTLKISRVEAEDVGVYYCAQGSQVPFTFGQGTKLEIKRTVAAPSVFIFPPSDEQLKSGTASVVCLLNNFYPREAKVQWKVDNALQSGNSQESVTEQDSKDSTYSLSSTLTLSKADYEKHKVYACEVTHQGLSSPVTKSFNRGEC
B7: GPC3 ERY22-dBBDu_189/L116 (bispecific antibody, human IgG1, kappa, L234A L235A, N297A)
heavy 1: B5 heavy 1
light 1: B5 light 1
heavy 2: B5 heavy 2 with V48I, K54R, G55S, L57Q, A60T, S105Q, G107S, G108S, G109L, G112S
light 2: B6 light 2 with A24S, A25S, E27Q, I32A, Y35Q, F37Y, S57A, I61P, S97T
B8: GPC3 ERY22-dBBDu_186/L106 (bispecific antibody, human IgG1, kappa, L234A L235A, N297A)
heavy 1: B5 heavy 1
light 1: B5 light 1
heavy 2: B5 heavy 2 with K54R, G55S, L57Q, A60T, S105Q, G107S, G108T, G109V, G112A
light 2: B6 light 2 with A24S, A25T, V30L, Y35F, S57A, I61M
B9: GPC3 ERY22-dBBDu_186/L096 (bispecific antibody, human IgG1, kappa, L234A L235A, N297A)
heavy 1: B5 heavy 1
light 1: B5 light 1
heavy 2: B5 heavy 2 with K54R, G55S, L57Q, A60T, S105Q, G107S, G108T, G109V, G112A
light 2: B6 light 2 with A24R, A25T, E27Q, S57Y, I61Q, S97T, Q98S, F101Y
B10: GPC3 ERY22-dBBDu_189/L119 (bispecific antibody, human IgG1, kappa, L234A L235A, N297A)
heavy 1: B5 heavy 1
light 1: B5 light 1
heavy 2: B5 heavy 2 with V48I, K54R, G55S, L57Q, A60T, S105Q, G107S, G108S, G109L, G112S
light 2: B6 light 2 with A24T, E27Q, Y35F

These binders were tested against T2, Human CD137 ECD (human) (assay: SPR Biacore T200, 37 C, Ab captured on anti-human Fc, antigen as analyte;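 note: recombinant human CD137 flowed over antibodies held by amine-coupled anti-human Fc on a CM4 chip, run in ACES pH 7.4 buffer with 150 mM NaCl and 0.05% Tween 20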).
T2 construct: also called human CD137 extracellular domain; recombinant human CD137
T2 sequence (chain, as listed by the source limits assumed): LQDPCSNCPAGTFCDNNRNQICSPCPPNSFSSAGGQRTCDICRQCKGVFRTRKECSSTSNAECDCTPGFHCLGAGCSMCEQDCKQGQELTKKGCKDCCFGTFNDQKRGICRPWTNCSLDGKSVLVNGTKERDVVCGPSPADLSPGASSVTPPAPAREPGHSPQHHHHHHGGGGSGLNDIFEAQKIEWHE
Protocol: (§1) Binding affinity of Dual-Fab antibodies (Dual-Ig) to human CD3 were assessed at 25 degrees C. using Biacore T200 instrument (GE Healthcare). Anti-human Fc (GE Healthcare) was immobilized onto all flow cells of a CM4 sensor chip using amine coupling kit (GE Healthcare). Antibodies were captured onto the anti-Fc sensor surfaces, then recombinant human CD3 or CD137 was injected over the flow cell. All antibodies and analytes were prepared in ACES pH 7.4 containing 20 mM ACES, 150 mM NaCl, 0.05% Tween 20, 0.005% NaN3. Sensor surface was regenerated each cycle with 3M MgCl2. […] CD137 binding affinity assay was conducted in same condition except assay temperature was set at 37 degrees C.

Q: How did the Kd turn out when B1 was run?
A: Its Kd is 36.4 nM.

Q: What about the koff of the same binder?
A: Its koff is 0.00047 s⁻¹.

Q: And the kon?
A: Its kon is 12900 M⁻¹ s⁻¹.

Q: How did the Kd turn out when B2 was run?
A: Its Kd is 111 nM.

Q: What about the koff of the same binder?
A: Its koff is 0.00136 s⁻¹.

Q: What about the kon of the same binder?
A: Its kon is 12200 M⁻¹ s⁻¹.

Q: B3 was tested. Which Kd did it give?
A: Its Kd is 64.8 nM.

Q: What about the koff of the same binder?
A: Its koff is 0.000647 s⁻¹.

Q: And the kon?
A: The kon was 9980 M⁻¹ s⁻¹.

Biological target: T1, Human CD3eg linker
Assay: SPR Biacore T200, 25 C, Ab captured on anti-human Fc, antigen as analyte;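 note: Anti-Fc amine-coupled to a CM4 chip, recombinant human CD3 flowed over in 20 mM ACES buffer pH 7.4 with 150 mM NaCl and 0.05% Tween 20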
Protocol: as §1

Q: Which results are given for B4?
A: Kd: 340 nM; koff: 0.012 s⁻¹; kon: 35400 M⁻¹ s⁻¹

Q: What does the source list for B2?
A: Kd: 157 nM; koff: 0.0194 s⁻¹; kon: 123000 M⁻¹ s⁻¹

Each binder was assayed against human CD137 on HDLM-2 cells (human, UniProt Q07011 24-255) (assay: cell-based or functional assay).
human CD137 on HDLM-2 cells, sequence (Q07011 24-255): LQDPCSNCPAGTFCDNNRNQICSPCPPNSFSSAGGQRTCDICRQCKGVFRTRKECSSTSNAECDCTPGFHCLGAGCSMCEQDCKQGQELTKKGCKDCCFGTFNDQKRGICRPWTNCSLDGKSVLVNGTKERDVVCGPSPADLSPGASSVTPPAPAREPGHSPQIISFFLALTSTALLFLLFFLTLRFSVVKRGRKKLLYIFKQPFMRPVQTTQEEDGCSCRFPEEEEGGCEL

Q: Which “Agonistic activity compared to B, antibody 6 ug/mL” value does the source give for B5 here?
A: Its value is -2.21%.

Q: And the “Agonistic activity compared to B, antibody 30 ug/mL” value?
A: Its value is 1.1%.

Q: And the “Agonistic activity compared to Ctrl, antibody 6 ug/mL” value?
A: Its value is -7.68%.

Q: And the “Agonistic activity compared to Ctrl, antibody 30 ug/mL” value?
A: The value was 4.19%.

Q: And the “hIL-6 (pg/mL), antibody 6 ug/mL” value?
A: The value was 935 pg/mL.

Q: What about the “hIL-6 (pg/mL), antibody 30 ug/mL” value of the same binder?
A: The value was 944 pg/mL.

Q: Which results are given for B6?
A: Agonistic activity compared to B, antibody 6 ug/mL: 13.9%; Agonistic activity compared to B, antibody 30 ug/mL: 24.6%; Agonistic activity compared to Ctrl, antibody 6 ug/mL: 48.3%; Agonistic activity compared to Ctrl, antibody 30 ug/mL: 93.5%; hIL-6 (pg/mL), antibody 6 ug/mL: 1500 pg/mL; hIL-6 (pg/mL), antibody 30 ug/mL: 1750 pg/mL

Q: B7 was tested. Which “Agonistic activity compared to B, antibody 6 ug/mL” value did it give?
A: Its value is 8.28%.

Q: And the “Agonistic activity compared to B, antibody 30 ug/mL” value?
A: Its value is 19.2%.

Q: What about the “Agonistic activity compared to Ctrl, antibody 6 ug/mL” value of the same binder?
A: The value was 28.7%.

Q: And the “Agonistic activity compared to Ctrl, antibody 30 ug/mL” value?
A: The value was 72.9%.

Q: And the “hIL-6 (pg/mL), antibody 6 ug/mL” value?
A: Its value is 1300 pg/mL.

Q: And the “hIL-6 (pg/mL), antibody 30 ug/mL” value?
A: The value was 1570 pg/mL.

Q: With B8 as the binder, how does the “Agonistic activity compared to B, antibody 6 ug/mL” value read?
A: Its value is 13.2%.

Q: What about the “Agonistic activity compared to B, antibody 30 ug/mL” value of the same binder?
A: The value was 19.4%.

Q: And the “Agonistic activity compared to Ctrl, antibody 6 ug/mL” value?
A: The value was 45.8%.

Q: And the “Agonistic activity compared to Ctrl, antibody 30 ug/mL” value?
A: The value was 73.6%.

Q: And the “hIL-6 (pg/mL), antibody 6 ug/mL” value?
A: The value was 1480 pg/mL.

Q: What about the “hIL-6 (pg/mL), antibody 30 ug/mL” value of the same binder?
A: Its value is 1570 pg/mL.

Q: Which results are given for B9?
A: Agonistic activity compared to B, antibody 6 ug/mL: 19%; Agonistic activity compared to B, antibody 30 ug/mL: 24.2%; Agonistic activity compared to Ctrl, antibody 6 ug/mL: 66.1%; Agonistic activity compared to Ctrl, antibody 30 ug/mL: 91.7%; hIL-6 (pg/mL), antibody 6 ug/mL: 1680 pg/mL; hIL-6 (pg/mL), antibody 30 ug/mL: 1740 pg/mL

Q: Which “Agonistic activity compared to B, antibody 6 ug/mL” value does the source give for B10 here?
A: The value was 6.92%.

Q: And the “Agonistic activity compared to B, antibody 30 ug/mL” value?
A: The value was 20.4%.

Q: And the “Agonistic activity compared to Ctrl, antibody 6 ug/mL” value?
A: Its value is 24%.

Q: What about the “Agonistic activity compared to Ctrl, antibody 30 ug/mL” value of the same binder?
A: Its value is 77.3%.

Q: What about the “hIL-6 (pg/mL), antibody 6 ug/mL” value of the same binder?
A: The value was 1260 pg/mL.

Q: What about the “hIL-6 (pg/mL), antibody 30 ug/mL” value of the same binder?
A: Its value is 1610 pg/mL.

From patent publication US20210388087A1 (Chugai, published 2021)
